The target in this experiment is His-tagged MafAI (MafAI.1 of N. meningitidis BB-1, from plasmid pEN-mafAI-H) (Neisseria meningitidis strain BB-1). Description: semi-native SDS-PAGE with Western blot (heat modifiability); cell envelopes of BB-1, samples heated at 95°C or not before electrophoresis; sample buffer with 0.2% SDS and no β-mercaptoethanol, run on ice; detected with anti-His-tag antibodies (MafAI) or anti-MafAII antiserum.

Regarding “His-tagged MafAI (MafAI.1 of N. meningitidis BB-1, from plasmid pEN-mafAI-H) (natural protein)”, the stoichiometry N (commonly a count of units in the complex or per binding partner) is 8 subunits.

(Values after paper PMC7738311.)
